Laboratory results from the supplement of paper PMC11316812.
± gives the standard deviation of the averaged measurements.

Tests used:
MCF7 = assay: percentage of EdU-negative (G0-arrested) nuclei per well, 72 h; higher = more G0 arrest; conditions: reference: sequence is the full UniProt precursor, the tested protein was the secreted form or ectodomain
hTERT-HMEC = assay: as above; conditions: reference: sequence is the full UniProt precursor, the tested protein was the secreted form or ectodomain
[1] = protein concentration 0.0225 µM
[2] = protein concentration 0.0357143 µM
[3] = protein concentration 0.357143 µM
[4] = protein concentration 0.0257143 µM
[5] = protein concentration 0.257143 µM
[6] = protein concentration 0.00771429 µM
[7] = protein concentration 0.0771429 µM
[8] = protein concentration 0.03125 µM
[9] = protein concentration 0.3125 µM
[10] = protein concentration 0.02225 µM
[11] = protein concentration 0.2225 µM
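Also: secreted proteins added to cultured cells, EdU pulse at the end, nuclei found by Hoechst imaging, EdU status from nuclear versus surrounding ring intensity ratio, PBS as neutral control.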

## MWLPRVSSTAVTALLLAQTFLLLFLVSRPGPSSPAGGEARVHVLVLSSWRSGSSFVGQLFNQHPDVFYLMEPAWHVWTTLSQGSAATLHMAVRDLVRSVFLCDMDVFDAYLPWRRNLSDLFQWAVSRALCSPPACSAFPRGAISSEAVCKPLCARQSFTLAREACRSYSHVVLKEVRFFNLQVLYPLLSDPALNLRIVHLVRDPRAVLRSREQTAKALARDNGIVLGTNGTWVEADPGLRVVREVCRSHVRIAEAATLKPPPFLRGRYRLVRFEDLAREPLAEIRALYAFTGLSLTPQLEAWIHNITHGSGPGARREAFKTSSRNALNVSQAWRHALPFAKIRRVQELCAGALQLLGYRPVYSEDEQRNLALDLVLPRGLNGFTWASSTASHPRN [Q9GZX3]
MCF7; [1]
  percentage of EdU-negative: 24.3 ± 0.37%
MCF7; protein concentration 0.225 µM
  percentage of EdU-negative: 31 ± 0.51%
hTERT-HMEC; [1]
  percentage of EdU-negative: 5.21 ± 0.9%
hTERT-HMEC; protein concentration 0.225 µM
  percentage of EdU-negative: 23.2 ± 3.6%

## MWLRAFILATLSASAAWGHPSSPPVVDTVHGKVLGKFVSLEGFAQPVAIFLGIPFAKPPLGPLRFTPPQPAEPWSFVKNATSYPPMCTQDPKAGQLLSELFTNRKENIPLKLSEDCLYLNIYTPADLTKKNRLPVMVWIHGGGLMVGAASTYDGLALAAHENVVVVTIQYRLGIWGFFSTGDEHSRGNWGHLDQVAALRWVQDNIASFGGNPGSVTIFGESAGGESVSVLVLSPLAKNLFHRAISESGVALTSVLVKKGDVKPLAEQIAITAGCKTTTSAVMVHCLRQKTEEELLETTLKMKFLSLDLQGDPRESQPLLGTVIDGMLLLKTPEELQAERNFHTVPYMVGINKQEFGWLIPMQLMSYPLSEGQLDQKTAMSLLWKSYPLVCIAKELIPEATEKYLGGTDDTVKKKDLFLDLIADVMFGVPSVIVARNHRDAGAPTYMYEFQYRPSFSSDMKPKTVIGDHGDELFSVFGAPFLKEGASEEEIRLSKMVMKFWANFARNGNPNGEGLPHWPEYNQKEGYLQIGANTQAAQKLKDKEVAFWTNLFAKKAVEKPPQTEHIEL
MCF7; [2]
  percentage of EdU-negative: 23.32 ± 0.21%
MCF7; [3]
  percentage of EdU-negative: 24.5 ± 1.9%
hTERT-HMEC; [2]
  percentage of EdU-negative: 4.96 ± 0.78%
hTERT-HMEC; [3]
  percentage of EdU-negative: 6.05 ± 0.03%

## MWLRLGPPSLSLSPKPTVGRSLCLTLWFLSLALRASTQAPAPTVNTHFGKLRGARVPLPSEILGPVDQYLGVPYAAPPIGEKRFLPPEPPPSWSGIRNATHFPPVCPQNIHTAVPEVMLPVWFTANLDIVATYIQEPNEDCLYLNVYVPTEDVKRISKECARKPNKKICRKGGSGAKKQGEDLADNDGDEDEDIRDSGAKPVMVYIHGGSYMEGTGNMIDGSILASYGNVIVITLNYRVGVLGFLSTGDQAAKGNYGLLDQIQALRWVSENIAFFGGDPRRITVFGSGIGASCVSLLTLSHHSEGLFQRAIIQSGSALSSWAVNYQPVKYTSLLADKVGCNVLDTVDMVDCLRQKSAKELVEQDIQPARYHVAFGPVIDGDVIPDDPEILMEQGEFLNYDIMLGVNQGEGLKFVEGVVDPEDGVSGTDFDYSVSNFVDNLYGYPEGKDTLRETIKFMYTDWADRDNPETRRKTLVALFTDHQWVEPSVVTADLHARYGSPTYFYAFYHHCQSLMKPAWSDAAHGDEVPYVFGVPMVGPTDLFPCNFSKNDVMLSAVVMTYWTNFAKTGDPNKPVPQDTKFIHTKANRFEEVAWSKYNPRDQLYLHIGLKPRVRDHYRATKVAFWKHLVPHLYNLHDMFHYTSTTTKVPPPDTTHSSHITRRPNGKTWSTKRPAISPAYSNENAQGSWNGDQDAGPLLVENPRDYSTELSVTIAVGASLLFLNVLAFAALYYRKDKRRQEPLRQPSPQRGAGAPELGAAPEEELAALQLGPTHHECEAGPPHDTLRLTALPDYTLTLRRSPDDIPLMTPNTITMIPNSLVGLQTLHPYNTFAAGFNSTGLPHSHSTTRV [Q9NZ94]
MCF7; [4]
  percentage of EdU-negative: 24.2 ± 1.1%
MCF7; [5]
  percentage of EdU-negative: 24.1 ± 1.1%
hTERT-HMEC; [4]
  percentage of EdU-negative: 5.8 ± 1.5%
hTERT-HMEC; [5]
  percentage of EdU-negative: 10.2 ± 2.3%

## MWNMLIVAMCLALLGCLQAQELQGHVSIILLGATGDLAKKYLWQGLFQLYLDEAGRGHSFSFHGAALTAPKQGQELMAKALESLSCPKDMAPSHCAEHKDQFLQLSQYRQLKTAEDYQALNKDIEAQLQHAGLREAGRIFYFSVPPFAYEDIARNINSSCRPGPGAWLRVVLEKPFGHDHFSAQQLATELGTFFQEEEMYRVDHYLGKQAVAQILPFRDQNRKALDGLWNRHHVERVEIIMKETVDAEGRTSFYEEYGVIRDVLQNHLTEVLTLVAMELPHNVSSAEAVLRHKLQVFQALRGLQRGSAVVGQYQSYSEQVRRELQKPDSFHSLTPTFAAVLVHIDNLRWEGVPFILMSGKALDERVGYARILFKNQACCVQSEKHWAAAQSQCLPRQLVFHIGHGDLGSPAVLVSRNLFRPSLPSSWKEMEGPPGLRLFGSPLSDYYAYSPVRERDAHSVLLSHIFHGRKNFFITTENLLASWNFWTPLLESLAHKAPRLYPGGAENGRLLDFEFSSGRLFFSQQQPEQLVPGPGPAPMPSDFQVLRAKYRESPLVSAWSEELISKLANDIEATAVRAVRRFGQFHLALSGGSSPVALFQQLATAHYGFPWAHTHLWLVDERCVPLSDPESNFQGLQAHLLQHVRIPYYNIHPMPVHLQQRLCAEEDQGAQIYAREISALVANSSFDLVLLGMGADGHTASLFPQSPTGLDGEQLVVLTTSPSQPHRRMSLSLPLINRAKKVAVLVMGRMKREITTLVSRVGHEPKKWPISGVLPHSGQLVWYMDYDAFLG
MCF7; [1]
  percentage of EdU-negative: 23.3 ± 2.2%
MCF7; protein concentration 0.225 µM
  percentage of EdU-negative: 25.2 ± 1.6%
hTERT-HMEC; [1]
  percentage of EdU-negative: 5.45 ± 1.2%
hTERT-HMEC; protein concentration 0.225 µM
  percentage of EdU-negative: 7.4 ± 1.2%

## MWPLTVPPPLLLLLCSGLAGQTLFQNPEEGWQLYTSAQAPDGKCICTAVIPAQSTCSRDGRSRELRQLMEKVQNVSQSMEVLELRTYRDLQYVRGMETLMRSLDARLRAADGSLSAKSFQELKDRMTELLPLSSVLEQYKADTRTIVRLREEVRNLSGSLAAIQEEMGAYGYEDLQQRVMALEARLHACAQKLGCGKLTGVSNPITVRAMGSRFGSWMTDTMAPSADSRVWYMDGYYKGRRVLEFRTLGDFIKGQNFIQHLLPQPWAGTGHVVYNGSLFYNKYQSNVVVKYHFRSRSVLVQRSLPGAGYNNTFPYSWGGFSDMDFMVDESGLWAVYTTNQNAGNIVVSRLDPHTLEVMRSWDTGYPKRSAGEAFMICGVLYVTNSHLAGAKVYFAYFTNTSSYEYTDVPFHNQYSHISMLDYNPRERALYTWNNGHQVLYNVTLFHVISTSGDP
MCF7; [6]
  percentage of EdU-negative: 24.6 ± 2.2%
MCF7; [7]
  percentage of EdU-negative: 29 ± 4.7%
hTERT-HMEC; [6]
  percentage of EdU-negative: 4.89 ± 0.63%
hTERT-HMEC; [7]
  percentage of EdU-negative: 5.22 ± 0.46%

## MWPLWRLVSLLALSQALPFEQRGFWDFTLDDGPFMMNDEEASGADTSGVLDPDSVTPTYSAMCPFGCHCHLRVVQCSDLGLKSVPKEISPDTTLLDLQNNDISELRKDDFKGLQHLYALVLVNNKISKIHEKAFSPLRKLQKLYISKNHLVEIPPNLPSSLVELRIHDNRIRKVPKGVFSGLRNMNCIEMGGNPLENSGFEPGAFDGLKLNYLRISEAKLTGIPKDLPETLNELHLDHNKIQAIELEDLLRYSKLYRLGLGHNQIRMIENGSLSFLPTLRELHLDNNKLARVPSGLPDLKLLQVVYLHSNNITKVGVNDFCPMGFGVKRAYYNGISLFNNPVPYWEVQPATFRCVTDRLAIQFGNYKK
MCF7; [8]
  percentage of EdU-negative: 25.3 ± 1.7%
MCF7; [9]
  percentage of EdU-negative: 25.1 ± 3.1%
hTERT-HMEC; [8]
  percentage of EdU-negative: 4.62 ± 0.74%
hTERT-HMEC; [9]
  percentage of EdU-negative: 7.32 ± 0.21%

## MWQIVFFTLSCDLVLAAAYNNFRKSMDSIGKKQYQVQHGSCSYTFLLPEMDNCRSSSSPYVSNAVQRDAPLEYDDSVQRLQVLENIMENNTQWLMKLENYIQDNMKKEMVEIQQNAVQNQTAVMIEIGTNLLNQTAEQTRKLTDVEAQVLNQTTRLELQLLEHSLSTNKLEKQILDQTSEINKLQDKNSFLEKKVLAMEDKHIIQLQSIKEEKDQLQVLVSKQNSIIEELEKKIVTATVNNSVLQKQQHDLMETVNNLLTMMSTSNSAKDPTVAKEEQISFRDCAEVFKSGHTTNGIYTLTFPNSTEEIKAYCDMEAGGGGWTIIQRREDGSVDFQRTWKEYKVGFGNPSGEYWLGNEFVSQLTNQQRYVLKIHLKDWEGNEAYSLYEHFYLSSEELNYRIHLKGLTGTAGKISSISQPGNDFSTKDGDNDKCICKCSQMLTGGWWFDACGPSNLNGMYYPQRQNTNKFNGIKWYYWKGSGYSLKATTMMIRPADF
MCF7; [10]
  percentage of EdU-negative: 27.2 ± 1.1%
MCF7; [11]
  percentage of EdU-negative: 27.32 ± 0.1%
hTERT-HMEC; [10]
  percentage of EdU-negative: 4.54 ± 0.087%
hTERT-HMEC; [11]
  percentage of EdU-negative: 7.44 ± 0.6%

## MWQLLLPTALLLLVSAGMRTEDLPKAVVFLEPQWYSVLEKDSVTLKCQGAYSPEDNSTQWFHNENLISSQASSYFIDAATVNDSGEYRCQTNLSTLSDPVQLEVHIGWLLLQAPRWVFKEEDPIHLRCHSWKNTALHKVTYLQNGKDRKYFHHNSDFHIPKATLKDSGSYFCRGLVGSKNVSSETVNITITQGLAVSTISSFSPPGYQVSFCLVMVLLFAVDTGLYFSVKTNI
MCF7; [1]
  percentage of EdU-negative: 25.6 ± 2.5%
MCF7; protein concentration 0.225 µM
  percentage of EdU-negative: 25.5 ± 3.6%
hTERT-HMEC; [1]
  percentage of EdU-negative: 4.18 ± 0.071%
hTERT-HMEC; protein concentration 0.225 µM
  percentage of EdU-negative: 4.98 ± 1.1%

## MWSGWWLWPLVAVCTADFFRDEAERIMRDSPVIDGHNDLPWQLLDMFNNRLQDERANLTTLAGTHTNIPKLRAGFVGGQFWSVYTPCDTQNKDAVRRTLEQMDVVHRMCRMYPETFLYVTSSAGIRQAFREGKVASLIGVEGGHSIDSSLGVLRALYQLGMRYLTLTHSCNTPWADNWLVDTGDSEPQSQGLSPFGQRVVKELNRLGVLIDLAHVSVATMKATLQLSRAPVIFSHSSAYSVCASRRNVPDDVLRLVKQTDSLVMVNFYNNYISCTNKANLSQVADHLDHIKEVAGARAVGFGGDFDGVPRVPEGLEDVSKYPDLIAELLRRNWTEAEVKGALADNLLRVFEAVEQASNLTQAPEEEPIPLDQLGGSCRTHYGYSSGASSLHRHWGLLLASLAPLVLCLSLL
MCF7; [1]
  percentage of EdU-negative: 25 ± 0.35%
MCF7; protein concentration 0.225 µM
  percentage of EdU-negative: 25.2 ± 0.86%
hTERT-HMEC; [1]
  percentage of EdU-negative: 5.01 ± 0.58%
hTERT-HMEC; protein concentration 0.225 µM
  percentage of EdU-negative: 5.87 ± 0.22%
